Source: US20030059461A1 (SIBTECH, published 2003)

B1: txFVEGF121 fusion protein (ligand, human, UniProt P15692-9 27-147, looked up, not shown: large carriers)
chain: APMAEGGGQNHHEVVKFMDVYQRSYCHPIETLVDIFQEYPDEIEYIFKPSCVPLMRCGGCCNDEGLECVPTEESNITMQIMRIKPHQGQHIGEMSFLQHNKCECRPKKDRARQEKCDKPRR
modifications: 125I label in the Scatchard experiment
notes: mature; also called txVEGF121
B2: txFVEGF189 fusion protein (ligand, human, UniProt P15692-2 27-215, looked up, not shown: large carriers)
chain: APMAEGGGQNHHEVVKFMDVYQRSYCHPIETLVDIFQEYPDEIEYIFKPSCVPLMRCGGCCNDEGLECVPTEESNITMQIMRIKPHQGQHIGEMSFLQHNKCECRPKKDRARQEKKSVRGKGKGQKRKRKKSRYKSWSVPCGPCSERRKHLFVQDPQTCKCSCKNTDSRCKARQLELNERTCRCDKPRR
notes: mature; also called txVEGF189

Experiments:
[1] = target: T1, KDR/flk-1 receptor on 293/KDR or PAE/KDR cells (UniProt P35968 20-1356, limits assumed); test: Scatchard analysis on 293/KDR cells
T1 construct: whole, on cells; also called cellular KDR/flk-1 receptors

[2] = target: T1, KDR/flk-1 receptor on 293/KDR or …; test: Scatchard analysis of 125I-labelled protein binding to 293/KDR cells
[3] = target: T2, soluble KDR-Fc receptor (human, UniProt P35968 20-764, limits assumed); test: competition with 125I-VEGF165 for soluble KDR-Fc
T2 construct: extracellular domain; also called soluble, secreted extracellular domain of the KDR/flk-1 receptor fused to the Fc portion of human IgG; not shown: Fc portion of human IgG

[4] = target: T1, KDR/flk-1 receptor on 293/KDR or …; test: as described in Example 1.G.2 (binding to KDR/flk-1)

T1 sequence (P35968 20-1356 limits assumed): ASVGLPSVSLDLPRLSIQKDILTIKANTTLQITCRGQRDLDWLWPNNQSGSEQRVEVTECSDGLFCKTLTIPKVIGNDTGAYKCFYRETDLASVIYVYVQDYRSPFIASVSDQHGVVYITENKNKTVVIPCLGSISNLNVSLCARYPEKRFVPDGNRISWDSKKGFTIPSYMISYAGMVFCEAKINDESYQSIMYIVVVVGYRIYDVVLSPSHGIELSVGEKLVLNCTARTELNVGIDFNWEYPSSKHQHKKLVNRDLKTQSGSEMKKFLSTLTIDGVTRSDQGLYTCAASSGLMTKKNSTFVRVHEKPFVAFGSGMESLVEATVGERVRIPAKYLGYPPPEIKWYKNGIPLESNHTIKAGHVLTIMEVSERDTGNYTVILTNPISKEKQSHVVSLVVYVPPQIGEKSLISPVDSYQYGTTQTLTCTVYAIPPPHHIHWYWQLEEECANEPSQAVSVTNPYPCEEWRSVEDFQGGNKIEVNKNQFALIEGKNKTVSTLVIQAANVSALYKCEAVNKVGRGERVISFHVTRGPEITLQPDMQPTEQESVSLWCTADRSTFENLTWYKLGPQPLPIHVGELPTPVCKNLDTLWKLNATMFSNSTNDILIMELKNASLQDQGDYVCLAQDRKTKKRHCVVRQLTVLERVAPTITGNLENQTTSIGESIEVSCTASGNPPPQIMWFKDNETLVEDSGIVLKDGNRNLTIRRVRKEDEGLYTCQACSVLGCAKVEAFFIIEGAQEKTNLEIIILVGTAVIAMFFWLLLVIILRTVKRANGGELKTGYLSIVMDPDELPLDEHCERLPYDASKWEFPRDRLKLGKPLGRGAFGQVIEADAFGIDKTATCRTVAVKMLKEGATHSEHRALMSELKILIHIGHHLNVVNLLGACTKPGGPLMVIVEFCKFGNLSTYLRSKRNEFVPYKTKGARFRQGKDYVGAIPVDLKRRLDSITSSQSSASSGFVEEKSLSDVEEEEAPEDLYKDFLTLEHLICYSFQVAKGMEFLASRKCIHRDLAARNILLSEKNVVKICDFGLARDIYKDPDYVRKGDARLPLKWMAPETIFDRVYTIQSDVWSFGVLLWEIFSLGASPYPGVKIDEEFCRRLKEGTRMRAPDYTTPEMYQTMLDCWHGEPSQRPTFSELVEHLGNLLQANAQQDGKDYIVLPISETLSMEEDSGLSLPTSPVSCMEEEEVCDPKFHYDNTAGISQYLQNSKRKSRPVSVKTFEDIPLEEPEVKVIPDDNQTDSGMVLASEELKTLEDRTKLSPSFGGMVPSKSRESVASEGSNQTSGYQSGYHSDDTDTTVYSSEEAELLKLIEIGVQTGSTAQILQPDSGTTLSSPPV
T2 sequence (P35968 20-764 limits assumed): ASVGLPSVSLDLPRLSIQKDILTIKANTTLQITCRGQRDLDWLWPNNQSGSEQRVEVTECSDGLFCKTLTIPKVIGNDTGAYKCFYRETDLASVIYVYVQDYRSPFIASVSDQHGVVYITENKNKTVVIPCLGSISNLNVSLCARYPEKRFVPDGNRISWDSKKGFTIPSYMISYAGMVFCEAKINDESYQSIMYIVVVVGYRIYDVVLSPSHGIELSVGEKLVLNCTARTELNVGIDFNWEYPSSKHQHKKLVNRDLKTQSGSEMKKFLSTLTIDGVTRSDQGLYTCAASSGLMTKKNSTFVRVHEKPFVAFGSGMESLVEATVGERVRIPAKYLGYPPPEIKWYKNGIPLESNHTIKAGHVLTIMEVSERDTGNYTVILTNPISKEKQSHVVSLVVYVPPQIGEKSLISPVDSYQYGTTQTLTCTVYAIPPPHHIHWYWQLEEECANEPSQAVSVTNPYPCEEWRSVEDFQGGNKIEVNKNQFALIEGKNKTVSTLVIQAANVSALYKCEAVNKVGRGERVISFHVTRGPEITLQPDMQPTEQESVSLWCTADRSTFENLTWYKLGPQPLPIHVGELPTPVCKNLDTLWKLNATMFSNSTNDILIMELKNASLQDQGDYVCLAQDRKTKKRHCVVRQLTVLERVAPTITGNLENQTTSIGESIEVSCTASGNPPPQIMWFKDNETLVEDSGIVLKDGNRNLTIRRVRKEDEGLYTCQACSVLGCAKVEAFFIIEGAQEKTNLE

| fold lower affinity than VEGF165 [1] [fold] | Kd [2] [nM] | binding result [3] | binding result [4] | Binder |
| --- | --- | --- | --- | --- |
| ~10 | 3.5 |  |  | B1 |
|  |  | binds | binds | B2 |
